Results reported in publication PMC12951562 (2026).
Non-standard residues stand in square brackets, D forms with d. No end group written: not given here. pY = N[C@@H](Cc1ccc(OP(=O)(O)O)cc1)C(=O)O

T1: Ac-pYEEIE-NH2 (SMILES CC[C@H](C)[C@H](NC(=O)[C@H](CCC(=O)O)NC(=O)[C@H](CCC(=O)O)NC(=O)[C@H](Cc1ccc(OP(=O)(O)O)cc1)NC(C)=O)C(=O)N[C@@H](CCC(=O)O)C(N)=O)
T1 chain: Ac-[pY]EEIE-NH2

T2: caffeic acid-pYEEIE
T2 chain: {caffeic acid}-[pY]EEIE


How the values were obtained:
Ac-pYEEIE-NH2 = target: T1, Ac-pYEEIE-NH2; experiment: competition binding assay (SH2scan, qPCR)
caffeic acid-pYEEIE = target: T2, caffeic acid-pYEEIE; experiment: competition binding assay (SH2scan, qPCR)

Binder	Kd (Ac-pYEEIE-NH2)	Kd (caffeic acid-pYEEIE)
PIK3R3 C-terminal SH2 (protein) WFVEDINRVQAEDLLYGKPDGAFLIRESSKKGCYACSVVADGEVKHCVIYSTARGYGFAEPYNLYSSLKELVLHYQQTSLVQHNDSLNVRLAYPV	14.9 µM	
YES SH2 (protein) AEEWYFGKMGRKDAERLLLNPGNQRGIFLVRESETTKGAYSLSIRDWDEIRGDNVKHYKIRKLDNGGYYITTRAQFDTLQKLVKHYTEHADGLCHKLTTVCPTV	3.8 µM	
FES SH2 (protein) EQLWYHGAIPRAEVAELLVHSGDFLVRESQGKQEYVLSVLWDGLPRHFIIQSLDNLYRLEGEGFPSIPLLIDHLLSTQQPLTKKSGVVLHRAVPKD	4.2 µM	
FYN SH2 (protein) AEEWYFGKLGRKDAERQLLSFGNPRGTFLIRESETTKGAYSLSIRDWDDMKGDHVKHYKIRKLDNGGYYITTRAQFETLQQLVQHYSERAAGLCCRLVVPCHKG	3.3 µM	0.00053 µM
